Data from article PMC10439114.

Target: T1, CD155 with a C-terminal V5 epitope tag, on Raji cells (UniProt P15151)
T1 sequence: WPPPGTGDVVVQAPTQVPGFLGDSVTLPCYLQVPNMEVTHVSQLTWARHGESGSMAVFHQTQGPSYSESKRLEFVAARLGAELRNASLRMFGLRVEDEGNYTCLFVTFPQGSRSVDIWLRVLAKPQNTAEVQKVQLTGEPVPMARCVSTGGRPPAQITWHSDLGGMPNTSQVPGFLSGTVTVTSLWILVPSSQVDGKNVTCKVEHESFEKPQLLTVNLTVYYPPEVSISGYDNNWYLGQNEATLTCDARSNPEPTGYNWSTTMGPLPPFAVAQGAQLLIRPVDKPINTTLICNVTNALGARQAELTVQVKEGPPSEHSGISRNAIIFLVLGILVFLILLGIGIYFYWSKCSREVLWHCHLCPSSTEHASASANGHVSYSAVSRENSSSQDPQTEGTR

B1: TIGIT-SNAP (wild-type TIGIT with a C-terminal SNAP-tag, on Jurkat cells) (receptor)
chain: MMTGTIETTGNISAEKGGSIILQCHLSSTTAQVTQVNWEQQDQLLAICNADLGWHISPSFKDRVAPGPGLGLTLQSLTVNDTGEYFCIYHTYPDGTYTGRIFLEVLESSVAEHGARFQIPLLGAMAATLVVICTAVIVVVALTRKKKALRIHSVEGDLRRKSAGQEEWSPSAPSPPGSCVQAEAAPAGLCGEQRGEDCAELHDYFNVLSYRSLGNCSFFTETG
IL-2 release of Jurkat TIGIT-SNAP cells after 6 h with SEE-pulsed Raji-CD155 relative to Raji-CD111 co-cultures (ELISA): 37%
log2-fold decrease of IL-2 release of Jurkat TIGIT-SNAP cells with SEE-pulsed Raji-CD155 against Raji-CD111 (ELISA): 1.45 log2 fold
